Patent publication US20060079453A1
Values joined by “and” are separate entries in the source; they are usually repeats but may differ in a detail not shown here. Equal entries are not always repeated.

These binders were tested against HLA-A*3002 (human) (assay: competition, purified HLA). Details: not given.

First: RVLPPNWKY (modifications not checked)
Second: TQDGPGPGY (modifications not checked)
The IC50 of the first is 180-fold lower: 0.003 µM for the first, 0.541 µM for the second.

EVDGPGPGY (modifications not checked) and IYGPGPGLIF (modifications not checked) are within 1.5-fold of each other in IC50: 5.77 µM for the first, 6.84 µM for the second.

FTDLTIVY (modifications not checked) and IMVLSFLF (modifications not checked) are within 1.5-fold of each other in IC50: 39 µM for the first, 30 µM for the second.

First: RISGVDRYY (modifications not checked)
Second: RWGLLLALL (modifications not checked)
The IC50 of the first is 100-fold lower: 0.003 µM for the first, 0.3 µM for the second. The first is the more potent here.

First: FTDLRIVY (modifications not checked)
Second: YTGPGPGVY (modifications not checked)
The IC50 of the first is 1300-fold higher: 8.06 µM for the first, 0.0064 µM for the second.

Going from RQDILDLWVY (modifications not checked) to AYSSWMYSY (modifications not checked), the IC50 falls from 0.095 µM to 0.0049 µM (19-fold). The second is the more potent here.

Same assay, conditions: remark: other sources report otherwise

WFHISCLTF (modifications not checked) gave an IC50 of 75.1 µM.

What follows are binders tested against HLA-A*2902 (human) (assay: competition, purified HLA). Details: not given.

First: RSDGPGPGVLY (modifications not checked)
Second: EYRHYNYSLY (modifications not checked)
The IC50 of the first is 14-fold higher: 13.2 µM for the first, 0.956 µM for the second. The second is the more potent here.

Going from TQDGPGPGY (modifications not checked) to KYTSFPWL (modifications not checked), the IC50 rises from 37.1 µM to over 172 µM.

Compared with EVDGPGPGY (modifications not checked), PTLKEYVLDLY (modifications not checked) is 32-fold lower in IC50: 25.8 µM for the first, 0.805 µM for the second. The second is the more potent here.

AYGPGPGKF (modifications not checked) and TQDLVQEKY (modifications not checked) are within 1.5-fold of each other in IC50: 44.9 µM for the first, 33.3 µM for the second.

First: RQAKQHTCY (modifications not checked)
Second: TLEKITNTELY (modifications not checked)
The IC50 of the first is 18-fold higher: 155 µM for the first, 8.4 µM for the second.

First: TQGPGPGKY (modifications not checked)
Second: RWGLLLALL (modifications not checked)
The IC50 of the first is 1.7-fold lower: 36.7 µM for the first, 61.3 µM for the second. The first is the more potent here.

First: RSDSVGPGPGY (modifications not checked)
Second: FTDLRIVY (modifications not checked)
The IC50 of the first is 38-fold higher: 31.2 µM for the first, 0.813 µM for the second.

YTGPGPGVY (modifications not checked) showed an IC50 of 2.02 µM.

Same assay, conditions: remark: other sources report otherwise

First: TLEKLTNTGLY (modifications not checked)
Second: WFHISCLTF (modifications not checked)
The IC50 of the first is 10-fold higher: 0.991 µM for the first, 0.095 µM for the second. The second is the more potent here.

These binders were tested against HLA-A*0101 (human) (assay: competition, purified HLA). Details: not given.

First: KTLYQSNPY (modifications not checked)
Second: EYRHYNYSLY (modifications not checked)
The IC50 of the first is 16-fold lower: 6.91 µM for the first, 111 µM for the second.

Going from AADAAAAKY (modifications not checked) to ATSNYYIVTY (modifications not checked), the IC50 rises from 0.02 µM to 0.428 µM (21-fold). The first is the more potent here.

Compared with ISEYRHYQY (modifications not checked), YTAGPGPGY (modifications not checked) is 5.7-fold lower in IC50: 0.04 µM for the first, 0.007 µM for the second.

Compared with RQAKQHTCY (modifications not checked), EVGPGPGLY (modifications not checked) is lower in IC50: over 135 µM for the first, 0.05 µM for the second. The second is the more potent here.

Compared with FTDLRIVY (modifications not checked), RQDILDLWVY (modifications not checked) is 350-fold higher in IC50: 0.026 µM for the first, 9 µM for the second. The first is the more potent here.

RFLSKISEY (modifications not checked) showed an IC50 of over 40.3 µM.

In the case of FTDLTIVY (modifications not checked), the IC50 is reported as 0.016 µM and 0.034 µM.

Same assay, conditions: remark: other sources report otherwise

Compared with ALFQEYQCY (modifications not checked), TLEKLTNTGLY (modifications not checked) is lower in IC50: over 42 µM for the first, 0.077 µM for the second.

WFHISCLTF (modifications not checked) was tested, and the IC50 was 85.3 µM.
